We go through 3 substances from paper PMC5740060.

Test [1] addresses PfTrx-L2-OVX313 (Pyrococcus furiosus | human papillomavirus type 16) (UniProt P03107). As to the kind of experiment: non-reducing SDS-PAGE; heparin-purified antigen electrophoresed without β-mercaptoethanol (disulfide-linked oligomer kept); reduced sample beside it runs as the monomer.
Test [2] has the same target. As to the kind of experiment: SEC; Superdex 200 HR10/30, 25 mM Tris-HCl (pH 7.5), 150 mM NaCl, 0.7 ml/min; heparin-purified antigen; calibrated with molecular mass standards.
Test [3] deals with L2-OVX313 (human papillomavirus type 16) (UniProt P03107). As to the kind of experiment: non-reducing SDS-PAGE; heparin-purified antigen electrophoresed without β-mercaptoethanol (disulfide-linked oligomer kept); reduced sample beside it runs as the monomer.
The target is the same in test [4]. Kind of test: SEC; Superdex 200 HR10/30, 25 mM Tris-HCl (pH 7.5), 150 mM NaCl, 0.7 ml/min; heparin-purified antigen; calibrated with molecular mass standards.
In test [5] the target is PfTrx-L2(8x)-OVX313 (Pyrococcus furiosus). As to the kind of experiment: non-reducing SDS-PAGE; heparin-purified antigen electrophoresed without β-mercaptoethanol (disulfide-linked oligomer kept); reduced sample beside it runs as the monomer.
Test [6] has the same target. Kind of test: SEC; Superdex 200 HR10/30, 25 mM Tris-HCl (pH 7.5), 150 mM NaCl, 0.7 ml/min; heparin-purified antigen; calibrated with molecular mass standards.

What is called stoichiometry N is a count of units in the complex or per binding partner.

Turning to “PfTrx-L2-OVX313 (from UniProt P03107 20-38; P03107 20-38; P03107 20-38)”, the stoichiometry N in test [1] and in test [2] was 7 throughout.
Regarding “L2-OVX313 (from UniProt P03107 20-38; P03107 20-38; P03107 20-38)”, the stoichiometry N in test [3] and in test [4] was 7 each time.
Regarding PfTrx-L2(8x)-OVX313, the stoichiometry N in test [5] and in test [6] was 7 throughout.
